The assay concerns the target SARS-CoV-2 RBD (SARS-CoV-2 (P0DTC2 reference)); strain …, UniProt P0DTC2, biotin (site-specific, BirA, on the AviTag)). Kind of assay: BLI. (Biolayer interferometry detects binding as a change in optical thickness at a sensor tip.)

Consider 2 molecules from PMC8028696 (Journal of Molecular Biology, 2021).

B1: IgG 15046 (antibody, V domains shown)
VH: EVQLVESGGGLVQPGGSLRLSCAASGFDFGSYAMHWVRQAPGKGLEWVAGIYASGGYTDYADSVKGRFTISADTSKNTAYLQMNSLRAEDTAVYYCARGWSYYWGFDYWGQGTLVTVSS
VL: DIQMTQSPSSLSASVGDRVTITCRASQSVSSAVAWYQQKPGKAPKLLIYSASSLYSGVPSRFSGSRSGTDFTLTISSLQPEDFATYYCQQYDYGLFTFGQGTKVEIK
On to B1, for which binding was put at a Kd of 3.7 ± 0.1 nM.

B2: IgG 15036 (antibody, V domains shown)
VH: EVQLVESGGGLVQPGGSLRLSCAASGFDFTAYDIHWVRQAPGKGLEWVAGISASGGYTAYADSVKGRFTISADTSKNTAYLQMNSLRAEDTAVYYCARDGFHSYALDYWGQGTLVTVSS
VL: DIQMTQSPSSLSASVGDRVTITCRASQSVSSAVAWYQQKPGKAPKLLIYSASSLYSGVPSRFSGSRSGTDFTLTISSLQPEDFATYYCQQWYSLFTFGQGTKVEIK
B2 displayed a Kd of 2.2 ± 0.2 nM.

Usually Kd stands for the equilibrium constant for the complex coming apart. Lower therefore signals a tighter complex.
